A value given as a limit tells only on which side of the number the result lay.

One may read the EC50 as the midpoint of the concentration-response curve.

The target of experiment [1] is HA of H7N3 A/Canada/444/04 (influenza A virus H7N3 A/Canada/444/04). In words: ELISA on recombinant or purified HA. (An ELISA detects its analyte on a solid surface through an enzyme-linked reagent.)
The target in experiment [2] is HA of H3N2 A/Wyoming/3/03 (influenza A virus H3N2 A/Wyoming/3/03). In words: ELISA on recombinant or purified HA.
The target of experiment [3] is HA of H3N2 A/Brisbane/10/07 (influenza A virus H3N2 A/Brisbane/10/07). The experiment is described as follows: ELISA on recombinant or purified HA.
Experiment [4] deals with HA of H6N5 A/shearwater/Australia/1/72 (influenza A virus H6N5 A/shearwater/Australia/1/72). In words: ELISA on recombinant or purified HA.
In experiment [5] the target is HA of H1N1 A/Brisbane/59/07 (influenza A virus H1N1 A/Brisbane/59/07). The experiment is described as follows: ELISA on recombinant or purified HA.
The target of experiment [6] is HA of H2N2 A/Singapore/1/57 (influenza A virus H2N2 A/Singapore/1/57) (UniProt Q67333). The experiment is described as follows: ELISA on recombinant or purified HA.
Experiment [7] concerns the target HA of H3N2 A/New York/55/04 (influenza A virus H3N2 A/New York/55/04). In words: ELISA on recombinant or purified HA.
Experiment [8] concerns the target HA of H5N1 A/Viet Nam/1/05 (influenza A virus H5N1 A/Viet Nam/1/05). In words: ELISA on recombinant or purified HA.
The target in experiment [9] is HA of H5N1 A/Viet Nam/1203/04 (influenza A virus H5N1 A/Viet Nam/1203/04). The experiment is described as follows: ELISA on recombinant or purified HA.
Experiment [10] deals with HA of H8N4 A/Alberta/357/84 (influenza A virus H8N4 A/Alberta/357/84). In words: ELISA on recombinant or purified HA.
The target in experiment [11] is HA of H13N6 A/gull/Maryland/704/77 (ELISA antigen) (influenza A virus H13N6 A/gull/Maryland/704/77) (UniProt P13103). In words: ELISA on recombinant or purified HA.
For experiment [12], the target named is HA of H10N4 A/mink/Sweded/3900/84 (influenza A virus H10N4 A/mink/Sweded/3900/84). In words: ELISA on recombinant or purified HA.
The target of experiment [13] is HA of H4N6 A/duck/Czechoslovakia/56 (ELISA antigen) (influenza A virus H4N6 A/duck/Czechoslovakia/56) (UniProt P19696). In words: ELISA on recombinant or purified HA.
For experiment [14], the target named is HA of H9 A/HK/1073/99 (influenza A virus H9N2 A/Hong Kong/1073/99). The experiment is described as follows: ELISA on recombinant or purified HA.
Experiment [15] deals with HA of H7 pseudovirus (A/chicken/Italy/99) in which the glycosylation site (Asn-38) was removed (influenza A virus H7 A/chicken/Italy/99). In words: cell-based or functional assay.

Consider ctr (control antibody of Table 8), for which the EC50 in [1], in [2], in experiment [3], in experiment [4], in experiment [5] and in [6] was above 20 µg/mL each time. Moreover, the concentration giving a half-maximal response (EC50) in experiment [7], in experiment [8], in [9], in experiment [10], in experiment [11] and in experiment [12] was above 20 µg/mL in each case. Besides, the EC50 in [13] and in [14] was above 20 µg/mL throughout.
In experiment [15], CR6261 (antibody) showed a neutralization of H7 pseudovirus, IC50 above 50 µg/mL.
F10 (antibody): the neutralization of H7 pseudovirus, IC50 in experiment [15] is above 50 µg/mL.

For the origin of these results see US20170204167A1.
